In assay [1] the target is T1, biotinylated APRIL (Homo sapiens (Human), UniProt O75888 105-250, biotinylated using NHS-biotin at a molar ratio of 20:1 biotin:APRIL).
T1 construct: also called bio-APRIL
T1 sequence: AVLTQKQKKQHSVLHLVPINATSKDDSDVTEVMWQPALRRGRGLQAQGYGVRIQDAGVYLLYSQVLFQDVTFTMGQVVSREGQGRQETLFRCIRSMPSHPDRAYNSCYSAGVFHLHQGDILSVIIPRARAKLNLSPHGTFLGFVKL
The experiment in a line: scFv inhibition of bio-APRIL (5 ng/ml) binding to coated BCMA fusion protein, streptavidin-DELFIA. On the procedure: (§1) APRIL binds to BCMA with higher affinity than its binds to TACI so, inhibition of biotinylated APRIL (bio-APRIL) binding to BCMA can be used to screen selection outputs as periplasmic extracts for neutralizers and then assess potency of the positives as purified scFvs. To perform this assay, each well of a black 96 well flat-bottomed plate (Costar) was coated with 1.25 ng BCMA fusion protein overnight at 4° C. The wells were blocked with 3% milk in PBS for an hour at room temperature. ScFv were then added in the presence of 5 ng/ml biotinylated APRIL for 90 minutes at room temperature. Binding of biotinylated APRIL was detected via streptavidin Delfia (Wallac) added at a 1:1000 dilution in Delfia assay buffer (Wallac). After an hour at room temperature this was read on a Wallac 1420 workstation at 620 nm.

The target in assay [2] is T1, biotinylated APRIL. The experiment in a line: scFv inhibition of bio-APRIL (50 ng/ml) binding to coated TACI fusion protein, streptavidin-DELFIA; partial inhibition. On the procedure: as §1
(§2) An assay similar to that described above can also be used to test if anti-APRIL antibodies of the invention are able to inhibit binding of bio-APRIL to TACI. In this case, the plate was coated with 2.5 ng TACI fusion protein per well and scFv were added in the presence of 50 ng/ml biotinylated APRIL instead of 5 ng/ml. Otherwise, the method was identical to that for the BCMA:bio-APRIL assay.

In assay [3] the target is T1, biotinylated APRIL. The experiment in a line: scFv inhibition of bio-APRIL (50 ng/ml) binding to coated TACI fusion protein, streptavidin-DELFIA. How it is done:
as §1, §2

In assay [4] the target is T1, biotinylated APRIL. The assay is described as follows: scFv inhibition of bio-APRIL (5 ng/ml) binding to coated BCMA fusion protein, streptavidin-DELFIA; partial inhibition. On the procedure: as §1
For assay [5], the target named is T1, biotinylated APRIL. The assay is described as follows: receptor binding inhibition assay: scFv titrated with bio-APRIL (5 ng/ml); blocked binding of bio-APRIL to plate-coated BCMA fusion protein; streptavidin Delfia, fluorescence counts. How it is done:
as §1

For a further assay, the target named is T2, BCMA (Homo sapiens (Human), UniProt Q02223 1-48, limits assumed).
T2 chain: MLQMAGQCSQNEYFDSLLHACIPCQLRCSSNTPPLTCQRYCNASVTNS
The assay is described as follows: Specificity phage ELISA (scFv on phage, anti-M13-HRP, A450). On the procedure: (§3) Flexible 96-well plates (Falcon) were coated overnight at 4° C. with each antigen (1 μg/ml). All antigens were coated in PBS. After coating, the solutions were removed from the wells, and the plates were blocked for 1 hour at room temperature in MPBS. The plates were washed 3 times with PBS and then 50 μl of pre-blocked phage was added to each well. The plates were incubated at room temperature for 1 hour and then washed with 3 changes of PBST followed by 3 changes of PBS.
(§4) To each well, 50 μl of an anti-M13-HRP conjugate (Pharmacia) at a 1 in 5000 dilution in MPBS was added and the plates incubated at room temperature for 1 hour. Each plate was washed three times with PBST followed by three times with PBS.
(§5) Fifty μl of TMB substrate was then added to each well, and incubated at room temperature for 30 minutes or until color development. The reaction was stopped by the addition of 25 μl of 0.5 M H₂SO₄. The signal generated was measured by reading the absorbance at 450 nm (A₄₅₀) using a microtitre plate reader (Bio-Rad 3550).

A further assay has as its target T3, TACI (Homo sapiens (Human), UniProt O14836 1-154, limits assumed).
T3 sequence: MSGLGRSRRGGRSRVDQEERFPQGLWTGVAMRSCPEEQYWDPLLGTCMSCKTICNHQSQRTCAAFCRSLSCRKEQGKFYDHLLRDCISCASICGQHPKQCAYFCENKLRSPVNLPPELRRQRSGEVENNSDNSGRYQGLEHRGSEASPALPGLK
Described as above. How it is done:
as §3, §4, §5

A further assay deals with T4, BLyS (Homo sapiens (Human), UniProt Q9Y275 134-285).
T4 construct: also called Neutrokine-alpha
Described as above. How it is done: as §3, §4, §5

Another assay has as its target T5, LIGHT (Homo sapiens (Human), UniProt O43557 83-240, limits assumed).
T5 chain: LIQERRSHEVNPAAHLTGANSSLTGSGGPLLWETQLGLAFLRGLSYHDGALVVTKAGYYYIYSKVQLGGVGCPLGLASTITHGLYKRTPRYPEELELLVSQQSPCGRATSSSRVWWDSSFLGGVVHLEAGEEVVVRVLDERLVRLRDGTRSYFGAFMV
The description is as above. On the procedure:
as §3, §4, §5

In a further assay the target is T6, TNF-α (Homo sapiens (Human), UniProt P01375 77-233).
T6 construct: also called TNF-alpha
The description is as above. How it is done: as §3, §4, §5

In another assay the target is T7, BSA (UniProt P02769 25-607).
T7 construct: Unrelated control antigen coated at 1 µg/ml in the phage ELISAs
The assay is described as above. On the procedure: as §3, §4, §5

Substitutions are numbered along the chain they refer to.

T6 sequence (P01375 77-233 limits assumed): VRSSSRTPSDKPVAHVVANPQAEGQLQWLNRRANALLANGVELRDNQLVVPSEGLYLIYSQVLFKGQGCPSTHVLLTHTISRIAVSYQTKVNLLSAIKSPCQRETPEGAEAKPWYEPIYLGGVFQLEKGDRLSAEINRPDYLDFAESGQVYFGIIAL
T7 sequence (P02769 25-607 limits assumed): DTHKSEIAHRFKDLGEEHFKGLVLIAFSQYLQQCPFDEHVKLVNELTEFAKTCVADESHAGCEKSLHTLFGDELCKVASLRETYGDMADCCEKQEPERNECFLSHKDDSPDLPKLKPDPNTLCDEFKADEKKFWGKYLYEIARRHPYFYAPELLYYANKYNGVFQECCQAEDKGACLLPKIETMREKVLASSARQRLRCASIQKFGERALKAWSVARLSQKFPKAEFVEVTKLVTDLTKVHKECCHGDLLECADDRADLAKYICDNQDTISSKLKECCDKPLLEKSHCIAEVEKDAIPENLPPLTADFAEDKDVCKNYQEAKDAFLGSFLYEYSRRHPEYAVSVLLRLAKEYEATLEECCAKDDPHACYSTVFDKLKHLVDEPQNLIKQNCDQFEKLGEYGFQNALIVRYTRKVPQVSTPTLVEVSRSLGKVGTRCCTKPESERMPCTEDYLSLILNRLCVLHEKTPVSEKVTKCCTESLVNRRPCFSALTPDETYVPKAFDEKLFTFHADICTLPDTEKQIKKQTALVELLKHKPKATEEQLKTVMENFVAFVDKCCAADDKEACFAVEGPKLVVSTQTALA
T4 sequence (Q9Y275 134-285 limits assumed): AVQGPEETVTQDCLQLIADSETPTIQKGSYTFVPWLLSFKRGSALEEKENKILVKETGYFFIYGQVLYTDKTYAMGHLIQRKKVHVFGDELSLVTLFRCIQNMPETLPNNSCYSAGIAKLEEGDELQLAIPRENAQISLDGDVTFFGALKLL

B1: A027A11 (scFv)
scFv: QVQLQQSGAEVKKPGSSVKVSCKASGGTFSTYAITWVRQAPGQGLEWMGDIIPVFGIPNYAQMFQDRVTITADESTSTAYLELNSLGAEDTAVYYCARGSQAFEIWGKGTTVTVSSGGGGSGGGGSGGGGSQSVLTQPASVSGSPGQSITISCTGTSSDVGGYNYVSWYQQHPGKAPKLMIYEGSKRPSGVSNRFSGSKSGNTASLTISGLQAEDEADYYCSSYTTRSTRVFGGGTKLTVLG
Broadly, the IC50 is the point on the concentration scale where inhibition reaches its midpoint. As for B1, the IC50 with biotinylated APRIL [1] came out at 2.7 nM; in the assay with biotinylated APRIL [2] it was 5.6 nM.

B2: A034H05 (scFv)
scFv: EVQLVQSGAEVKKPGSSVKVSCKVSGGSFPNYAINWVRQAPGQGLEWMGSLVPVFLTPNYAERFQDRVTITADESTSTAYMELRSLRSDDTAVFYCARSGGDGYRDYGMDLWGRGTLVTVSSGGGGSGGGGSGGGGSAQSVLTQPPSASGTPGQRVTISCSGSSSNIGRNTVNWFQQLPGTAPKLLIYSSNQRPSGVPDRFAGSKSGTSASLAISGLQSEDEADYYCAAWDDSLNGLVFGGGTKLTVLG
For B2, the IC50 worked out at 10 nM with biotinylated APRIL [1] and 13 nM with biotinylated APRIL [2].

B3: A013B07 (scFv)
scFv: EVQLVQSGAEVKKPGASVKVSCKTSGYTFTDNYMHWVRQAPGQGLEWMGWISPNSSTTLYAQKFRGRVTLTRDTSVSTAYMELSGLDSDDTALYFCARGGRLAGSTVFTPAFEYWGQGTMVTVSSGGGGSGGGGSGGGGSAQSVLTQPPSVSEAPRQRVTISCSGSSSNIGANAVNWYQQLPGKAPKLLIYFDDLLPSGVSDRFSGSKSGTSASLAISGLQSEDEADYYCAAWDDSLNGVVFGGGTKLTVLG
As to B3, the IC50 with biotinylated APRIL [1] came out at 7.7 nM; in the assay with biotinylated APRIL [3] it was 10 nM.

B4: A020F03 (scFv)
scFv: B3 scFv with Q117R, S143A, P149S, A172N, N176K, F192Y, V240Y, G244T, L248V
For B4, the IC50 with biotinylated APRIL [1] came to 12 nM; with biotinylated APRIL [3], 3.5 nM.

B5: A010D09 (scFv)
scFv: QVQLVQSGAEVKKLGSSVKVSCKASGGTFSSYAISWVRQAPGQGLEWMGGIIPIFGTANYAQKFQGRVTITADESTSTAYMELSSLRSEDTAVYYCARDLSRLGMDVWGQGTTVTVSSGGGGSGGGGSGGGGSDIQMTQSPSTLSASIGDRVTITCRASEGIYHWLAWYQQKPGKAPKLLIYKASSLASGAPSRFSGSGSGTDFTLTISSLQPDDFATYYCQQYSNYPLTFGGGTKLEIKR
B5: the IC50 with biotinylated APRIL [4] was determined as 2.3 nM; in the assay with biotinylated APRIL [2] it was 12 nM; with biotinylated APRIL [5] it was 3 nM.

B6: A034G03 (scFv)
scFv: QVQLQQSGAEVKKPGSSVKVSCKASGGTFSNYAISWVRQAPGQGLEWMGGIIPLFDTPNYAQKFQGRVTITADESTSTAYMELSSLRSEDTAVYYCARGNTGPRPFDPWGQGTLVTVSSGGGGSGGGGSGGGGSAQAVLTQPSSVSGAPGQRVTISCSATSPNIGAGDEIHWYQVSPGKAPKLLIYGDIKRPSGVSDRFSGSKSGTTASLAITGLRPEDEADYYCQSYDRTLSGSVVFGGGTKVTVLG
For B6, the IC50 with biotinylated APRIL [1] amounted to 6 nM; with biotinylated APRIL [2], 36 nM.

B7: A053H04 (scFv)
scFv: EVQLVQSGAEVKKPGSSVKVSCKASGGTFSNYAISWVRQAPGQGLEWMGGIIPLFDTPNYAQKFQGRVTITADESTSTAYMELSSLRSEDTAVYYCARGNTGPRPFDPWGKGTTVTVSSGGGGSGGGGSGGGGSAQAVLTQPSSVSGAPGQRVTVSCTGSSSNIGAGYEVNWYQQLPGTAPKLLIYGDTNRPSGVPDRFSGSKSGTSASLAITGLQAEDEANYYCQSYDSGPGGPVVFGGGTKLTVLG
Regarding B7, the IC50 stood at 25 nM with biotinylated APRIL [1] and 139 nM with biotinylated APRIL [2].

B8: A030D09 (scFv)
scFv: QVQLQQSGAEVKKPGSSVKVSCKTSGGAFSHYAIHWVRLAPGQGLEWMGDIIPVYGSTTYAQKFQDRVTISADESTSTAYMELSSLRSEDTAVYYCARSWYYDILTGYWDYYYMDVWGKGTLVTVSSGGGGSGGGGSGGGGSSELTQDPAVSVALGQTVRITCQGDSLRSYYASWYQQKPGQAPVLVIYGKNNRPSGIPDRFSGSSSGNTASLTITGAQAEDEADYYCNSRDSSGNHVVFGGGTKLTVLG
For the molecule B8, the concentration for half-maximal inhibition (IC50) with biotinylated APRIL [1] amounted to 55 nM; with biotinylated APRIL [2], 150 nM.

B9: A027B01 (scFv)
scFv: QVQLLQSAAEVKKPGSSVKVSCKTSGGTFRNHAISWVRQAPGQGLEWMGGIIPIFGTANYAQKFQGRVTITADESTSTAYMELSSLRSEDTAVYYCARGISAGMDVWGRGTLVTVSSGGGGSGGGGSGGGGSDIQMTQSPSFLSASIGDRVTITCRASEGIYHWLAWYQQKPGKAPKLLIYKASSLASGAPSRFSGSGSGTDFTLTISSLQPDDFATYYCQQYSNYPLTFGGGTKLEIKR
On to B9, for which the results for the IC50 with biotinylated APRIL [4] and with biotinylated APRIL [2] were 3.1 nM and 94 nM, respectively.

B10: A004G02 (scFv)
scFv: QVQLVQSGAEVKKPGSSVKVSCKASGGTFSSYGIRWVRQAPGQGLEWMGGIIPIFGTANYAQKFQGRVTITADEYTSTAYMELSSLRSEDTAVYYCARSNPQYDAFDIWGQGTTVTVSSGGGGSGGGGSGGGGSSYVLTQPPSVSGTPGQRVTVSCSGGRSNIGSNTVKWYQQLPGTAPKLLIYGNDQRPSGVPDRFSGSKSGNTASLTVSGLQVEDEADYYCQSYDSSLRGSVFGGGTKLTVLG
B10: the binding result with BCMA, with TACI, in the assay with BLyS, with LIGHT, with TNF-α and with BSA was “no binding (tested: antigen coated at 1 µg/ml)” in each case. For the same molecule, the IC50 with biotinylated APRIL [1] came to 19 nM; with biotinylated APRIL [3], 800 nM.

The record behind these values is patent US20030059862A1 (Human Genome Sciences, published 2003).
